Laboratory results published in patent publication EP2966448B1, “METHOD FOR THE PREDICTION OR PROGNOSIS OF THE RESPONSE OF A HUMAN SUBJECT SUFFERING FROM CANCER TO TREATMENT WITH AN ANTAGONIST OF THE NK1 RECEPTOR” (priority 2013, dated 2014).

Target: NK1 receptor (human) (UniProt P25103)
Assay: cell-based or functional assay

Chain of NK1 receptor (human) (P25103 87-407): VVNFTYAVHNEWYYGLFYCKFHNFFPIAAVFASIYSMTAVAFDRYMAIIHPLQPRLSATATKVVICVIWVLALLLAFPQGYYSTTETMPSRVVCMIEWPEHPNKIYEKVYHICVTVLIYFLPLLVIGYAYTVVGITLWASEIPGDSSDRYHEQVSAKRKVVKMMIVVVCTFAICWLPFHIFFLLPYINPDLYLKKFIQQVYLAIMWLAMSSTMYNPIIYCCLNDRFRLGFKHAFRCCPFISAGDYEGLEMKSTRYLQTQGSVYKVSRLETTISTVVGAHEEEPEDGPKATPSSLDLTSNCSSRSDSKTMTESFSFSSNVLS

## anti-NK1 antibody (S8305, Sigma-Aldrich)
  Percentage of inhibition of cell cultures; Breast carcinoma (ductal adenocarcinoma); cases with amplification of the gene that encodes for the NK1 receptor: 96%
  Percentage of inhibition of cell cultures; Breast carcinoma (ductal adenocarcinoma); cases without amplification of the gene that encodes for the NK1 receptor: 26%
  Percentage of inhibition of cell cultures; Breast carcinoma (ductal adenocarcinoma); high expression of the truncated form of NK1 receptor (Group B): 94%
  Percentage of inhibition of cell cultures; Breast carcinoma (ductal adenocarcinoma); low expression of the truncated form of NK1 receptor (Group A): 24%
  Percentage of inhibition of cell cultures; Burkitt Lymphoma; cases with amplification of the gene that encodes for the NK1 receptor: 96%
  Percentage of inhibition of cell cultures; Burkitt Lymphoma; cases without amplification of the gene that encodes for the NK1 receptor: 25%
  Percentage of inhibition of cell cultures; Burkitt Lymphoma; high expression of the truncated form of NK1 receptor (Group B): 96%
  Percentage of inhibition of cell cultures; Burkitt Lymphoma; low expression of the truncated form of NK1 receptor (Group A): 26%
  Percentage of inhibition of cell cultures; Carcinoma of the uterine cervix (Squamous cell carcinoma); cases with amplification of the gene that encodes for the NK1 receptor: 94%
  Percentage of inhibition of cell cultures; Carcinoma of the uterine cervix (Squamous cell carcinoma); cases without amplification of the gene that encodes for the NK1 receptor: 27%
  Percentage of inhibition of cell cultures; Carcinoma of the uterine cervix (Squamous cell carcinoma); high expression of the truncated form of NK1 receptor (Group B): 95%
  Percentage of inhibition of cell cultures; Carcinoma of the uterine cervix (Squamous cell carcinoma); low expression of the truncated form of NK1 receptor (Group A): 24%
  Percentage of inhibition of cell cultures; Colon carcinoma (Adenocarcinoma); cases with amplification of the gene that encodes for the NK1 receptor: 96%
  Percentage of inhibition of cell cultures; Colon carcinoma (Adenocarcinoma); cases without amplification of the gene that encodes for the NK1 receptor: 24%
  Percentage of inhibition of cell cultures; Colon carcinoma (Adenocarcinoma); high expression of the truncated form of NK1 receptor (Group B): 94%
  Percentage of inhibition of cell cultures; Colon carcinoma (Adenocarcinoma); low expression of the truncated form of NK1 receptor (Group A): 24%
  Percentage of inhibition of cell cultures; Endometrium carcinoma; cases with amplification of the gene that encodes for the NK1 receptor: 96%
  Percentage of inhibition of cell cultures; Endometrium carcinoma; cases without amplification of the gene that encodes for the NK1 receptor: 28%
  Percentage of inhibition of cell cultures; Endometrium carcinoma; high expression of the truncated form of NK1 receptor (Group B): 94%
  Percentage of inhibition of cell cultures; Endometrium carcinoma; low expression of the truncated form of NK1 receptor (Group A): 26%
  Percentage of inhibition of cell cultures; Gastric carcinoma (Adenocarcinoma); cases with amplification of the gene that encodes for the NK1 receptor: 95%
  Percentage of inhibition of cell cultures; Gastric carcinoma (Adenocarcinoma); cases without amplification of the gene that encodes for the NK1 receptor: 25%
  Percentage of inhibition of cell cultures; Gastric carcinoma (Adenocarcinoma); high expression of the truncated form of NK1 receptor (Group B): 96%
  Percentage of inhibition of cell cultures; Gastric carcinoma (Adenocarcinoma); low expression of the truncated form of NK1 receptor (Group A): 22%
  Percentage of inhibition of cell cultures; Glioma (astrocytoma); cases with amplification of the gene that encodes for the NK1 receptor: 95%
  Percentage of inhibition of cell cultures; Glioma (astrocytoma); cases without amplification of the gene that encodes for the NK1 receptor: 25%
  Percentage of inhibition of cell cultures; Glioma (astrocytoma); high expression of the truncated form of NK1 receptor (Group B): 96%
  Percentage of inhibition of cell cultures; Glioma (astrocytoma); low expression of the truncated form of NK1 receptor (Group A): 24%
  Percentage of inhibition of cell cultures; Lung carcinoma (non small cell lung carcinoma); cases with amplification of the gene that encodes for the NK1 receptor: 97%
  Percentage of inhibition of cell cultures; Lung carcinoma (non small cell lung carcinoma); cases without amplification of the gene that encodes for the NK1 receptor: 25%
  Percentage of inhibition of cell cultures; Lung carcinoma (non small cell lung carcinoma); high expression of the truncated form of NK1 receptor (Group B): 95%
  Percentage of inhibition of cell cultures; Lung carcinoma (non small cell lung carcinoma); low expression of the truncated form of NK1 receptor (Group A): 26%
  Percentage of inhibition of cell cultures; Lung carcinoma (small cell lung carcinoma); cases with amplification of the gene that encodes for the NK1 receptor: 95%
  Percentage of inhibition of cell cultures; Lung carcinoma (small cell lung carcinoma); cases without amplification of the gene that encodes for the NK1 receptor: 26%
  Percentage of inhibition of cell cultures; Lung carcinoma (small cell lung carcinoma); high expression of the truncated form of NK1 receptor (Group B): 96%
  Percentage of inhibition of cell cultures; Lung carcinoma (small cell lung carcinoma); low expression of the truncated form of NK1 receptor (Group A): 25%
  Percentage of inhibition of cell cultures; Melanoma (Nodular Melanoma); cases with amplification of the gene that encodes for the NK1 receptor: 97%
  Percentage of inhibition of cell cultures; Melanoma (Nodular Melanoma); cases without amplification of the gene that encodes for the NK1 receptor: 26%
  Percentage of inhibition of cell cultures; Melanoma (Nodular Melanoma); high expression of the truncated form of NK1 receptor (Group B): 96%
  Percentage of inhibition of cell cultures; Melanoma (Nodular Melanoma); low expression of the truncated form of NK1 receptor (Group A): 26%
  Percentage of inhibition of cell cultures; Non Hodgkin Lymphoma B (diffuse B cell lymphoma); cases with amplification of the gene that encodes for the NK1 receptor: 94%
  Percentage of inhibition of cell cultures; Non Hodgkin Lymphoma B (diffuse B cell lymphoma); cases without amplification of the gene that encodes for the NK1 receptor: 26%
  Percentage of inhibition of cell cultures; Non Hodgkin Lymphoma B (diffuse B cell lymphoma); high expression of the truncated form of NK1 receptor (Group B): 95%
  Percentage of inhibition of cell cultures; Non Hodgkin Lymphoma B (diffuse B cell lymphoma); low expression of the truncated form of NK1 receptor (Group A): 24%
  Percentage of inhibition of cell cultures; Non Hodgkin Lymphoma T (diffuse T cell lymphoma); cases with amplification of the gene that encodes for the NK1 receptor: 95%
  Percentage of inhibition of cell cultures; Non Hodgkin Lymphoma T (diffuse T cell lymphoma); cases without amplification of the gene that encodes for the NK1 receptor: 24%
  Percentage of inhibition of cell cultures; Non Hodgkin Lymphoma T (diffuse T cell lymphoma); high expression of the truncated form of NK1 receptor (Group B): 95%
  Percentage of inhibition of cell cultures; Non Hodgkin Lymphoma T (diffuse T cell lymphoma); low expression of the truncated form of NK1 receptor (Group A): 25%
  Percentage of inhibition of cell cultures; Ovarian carcinoma (Adenocarcinoma); cases with amplification of the gene that encodes for the NK1 receptor: 95%
  Percentage of inhibition of cell cultures; Ovarian carcinoma (Adenocarcinoma); cases without amplification of the gene that encodes for the NK1 receptor: 24%
  Percentage of inhibition of cell cultures; Ovarian carcinoma (Adenocarcinoma); high expression of the truncated form of NK1 receptor (Group B): 95%
  Percentage of inhibition of cell cultures; Ovarian carcinoma (Adenocarcinoma); low expression of the truncated form of NK1 receptor (Group A): 25%
  Percentage of inhibition of cell cultures; Pancreatic carcinoma (Adenocarcinoma); cases with amplification of the gene that encodes for the NK1 receptor: 96%
  Percentage of inhibition of cell cultures; Pancreatic carcinoma (Adenocarcinoma); cases without amplification of the gene that encodes for the NK1 receptor: 25%
  Percentage of inhibition of cell cultures; Pancreatic carcinoma (Adenocarcinoma); high expression of the truncated form of NK1 receptor (Group B): 95%
  Percentage of inhibition of cell cultures; Pancreatic carcinoma (Adenocarcinoma); low expression of the truncated form of NK1 receptor (Group A): 23%
  Percentage of inhibition of cell cultures; Prostate carcinoma; cases with amplification of the gene that encodes for the NK1 receptor: 95%
  Percentage of inhibition of cell cultures; Prostate carcinoma; cases without amplification of the gene that encodes for the NK1 receptor: 25%
  Percentage of inhibition of cell cultures; Prostate carcinoma; high expression of the truncated form of NK1 receptor (Group B): 95%
  Percentage of inhibition of cell cultures; Prostate carcinoma; low expression of the truncated form of NK1 receptor (Group A): 27%
  Percentage of inhibition of cell cultures; Renal cell carcinoma (clear cell renal cell carcinoma); cases with amplification of the gene that encodes for the NK1 receptor: 97%
  Percentage of inhibition of cell cultures; Renal cell carcinoma (clear cell renal cell carcinoma); cases without amplification of the gene that encodes for the NK1 receptor: 27%
  Percentage of inhibition of cell cultures; Renal cell carcinoma (clear cell renal cell carcinoma); high expression of the truncated form of NK1 receptor (Group B): 93%
  Percentage of inhibition of cell cultures; Renal cell carcinoma (clear cell renal cell carcinoma); low expression of the truncated form of NK1 receptor (Group A): 24%
  Percentage of inhibition of cell cultures; Thyroid carcinoma (follicular carcinoma); cases with amplification of the gene that encodes for the NK1 receptor: 95%
  Percentage of inhibition of cell cultures; Thyroid carcinoma (follicular carcinoma); cases without amplification of the gene that encodes for the NK1 receptor: 26%
  Percentage of inhibition of cell cultures; Thyroid carcinoma (follicular carcinoma); high expression of the truncated form of NK1 receptor (Group B): 94%
  Percentage of inhibition of cell cultures; Thyroid carcinoma (follicular carcinoma); low expression of the truncated form of NK1 receptor (Group A): 24%
  Percentage of inhibition of cell cultures; Thyroid carcinoma (papillary carcinoma); cases with amplification of the gene that encodes for the NK1 receptor: 96%
  Percentage of inhibition of cell cultures; Thyroid carcinoma (papillary carcinoma); cases without amplification of the gene that encodes for the NK1 receptor: 27%
  Percentage of inhibition of cell cultures; Thyroid carcinoma (papillary carcinoma); high expression of the truncated form of NK1 receptor (Group B): 95%
  Percentage of inhibition of cell cultures; Thyroid carcinoma (papillary carcinoma); low expression of the truncated form of NK1 receptor (Group A): 25%
  Percentage of inhibition of cell cultures; Undifferentiated Pleomorphic Sarcoma (malignant fibrous histiocytoma grade 3); cases with amplification of the gene that encodes for the NK1 receptor: 96%
  Percentage of inhibition of cell cultures; Undifferentiated Pleomorphic Sarcoma (malignant fibrous histiocytoma grade 3); cases without amplification of the gene that encodes for the NK1 receptor: 25%
  Percentage of inhibition of cell cultures; Undifferentiated Pleomorphic Sarcoma (malignant fibrous histiocytoma grade 3); high expression of the truncated form of NK1 receptor (Group B): 95%
  Percentage of inhibition of cell cultures; Undifferentiated Pleomorphic Sarcoma (malignant fibrous histiocytoma grade 3); low expression of the truncated form of NK1 receptor (Group A): 25%
  Percentage of inhibition of cell cultures; Urinary bladder carcinoma (transitional cell carcinoma); cases with amplification of the gene that encodes for the NK1 receptor: 94%
  Percentage of inhibition of cell cultures; Urinary bladder carcinoma (transitional cell carcinoma); cases without amplification of the gene that encodes for the NK1 receptor: 24%
  Percentage of inhibition of cell cultures; Urinary bladder carcinoma (transitional cell carcinoma); high expression of the truncated form of NK1 receptor (Group B): 96%
  Percentage of inhibition of cell cultures; Urinary bladder carcinoma (transitional cell carcinoma); low expression of the truncated form of NK1 receptor (Group A): 26%
